From patent US20140056907A1 (Regeneron, published 2014)

What was measured:
[1] = molecular target: T1, human ASIC1/ASIC3 channels (co-expressed human ASIC1a and human ASIC3) (human, UniProt Q9UHC3 1-531); test: FACS, 3T3/hASIC1/3 cells, 10 nM antibody
T1 construct: whole, on cells; 3T3 cells co-expressing both subunits; also called 3T3/hASIC1/3; 3T3-hASIC1/ASIC3
T1 sequence 1: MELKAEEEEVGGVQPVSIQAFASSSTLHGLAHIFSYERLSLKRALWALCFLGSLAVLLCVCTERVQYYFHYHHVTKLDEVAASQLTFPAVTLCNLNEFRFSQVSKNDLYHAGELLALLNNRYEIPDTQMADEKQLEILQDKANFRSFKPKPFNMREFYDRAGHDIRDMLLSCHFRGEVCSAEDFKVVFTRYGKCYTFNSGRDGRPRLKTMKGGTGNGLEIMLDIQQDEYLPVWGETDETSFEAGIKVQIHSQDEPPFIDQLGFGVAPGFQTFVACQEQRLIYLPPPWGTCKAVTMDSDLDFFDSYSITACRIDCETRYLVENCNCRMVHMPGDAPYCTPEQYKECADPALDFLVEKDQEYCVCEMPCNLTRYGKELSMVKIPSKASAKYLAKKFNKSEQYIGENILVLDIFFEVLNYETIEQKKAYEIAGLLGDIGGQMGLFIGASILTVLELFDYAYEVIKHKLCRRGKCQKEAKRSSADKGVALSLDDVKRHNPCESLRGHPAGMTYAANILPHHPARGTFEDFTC
T1 sequence 2: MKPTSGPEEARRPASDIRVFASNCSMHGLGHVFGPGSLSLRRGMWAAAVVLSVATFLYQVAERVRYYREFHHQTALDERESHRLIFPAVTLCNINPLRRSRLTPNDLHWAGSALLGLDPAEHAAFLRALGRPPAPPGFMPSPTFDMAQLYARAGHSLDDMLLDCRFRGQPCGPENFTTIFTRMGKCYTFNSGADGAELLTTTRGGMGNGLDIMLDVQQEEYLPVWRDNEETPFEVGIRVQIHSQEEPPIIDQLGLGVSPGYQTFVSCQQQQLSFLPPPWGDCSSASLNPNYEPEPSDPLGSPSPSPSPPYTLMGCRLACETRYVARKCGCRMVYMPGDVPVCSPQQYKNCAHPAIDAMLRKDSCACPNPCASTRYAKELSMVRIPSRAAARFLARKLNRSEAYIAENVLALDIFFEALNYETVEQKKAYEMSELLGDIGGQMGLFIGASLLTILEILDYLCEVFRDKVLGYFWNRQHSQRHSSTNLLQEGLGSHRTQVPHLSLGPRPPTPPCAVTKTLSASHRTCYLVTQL
Text: (§1) For these experiments, four cell lines were constructed: (a) a mouse fibroblast 3T3 cell line stably transfected to overexpress full length human ASIC3 (3T3/hASIC3; amino acids 1-531 of NCBI accession number NP_{—}004760.1), (b) a 3T3 cell line stably transfected to co-express full length human ASIC1a and human ASIC3 (3T3/hASIC1/3; amino acids 1-528 of NCBI accession number NP_{—}001086.2 and amino acids 1-531 of NCBI accession number NP_{—}004760.1), (c) […] a stably transfected 3T3 cell line expressing the full-length mouse ASIC3 channel (3T3/mASIC3; amino acids 1-530 of NCBI accession number NP_{—}892045.2), and (d) a 3T3 cell line stably transfected to co-express full length mouse ASIC1a and mouse ASIC3 (3T3/mASIC1/3; amino acids 1-526 of NCBI accession number NP_{—}033727 and amino acids 1-530 of NCBI accession number NP_{—}892045.2). Antibody binding was determined using flow cytometry (FACS).
(§2) To perform the FACS binding experiments, adherent cells were collected with cold Millipore Accutase 3-5 minutes, spun and resuspended in ice-cold FACS buffer (PBS, 2% HI-FBS and 0.09% Na-azide). Anti-ASIC1 antibody at final concentrations of 10 nM was added for 20-30 minutes on ice. Cells were washed with 900 μL ice-cold FACS buffer, spun, and resuspended in 100 μL ice-cold FACS buffer. A secondary antibody which recognizes human Fc (Jackson Immuno Research, #109-136-098) and is conjugated to allophycocyanin, was then added to the cell mixture at a final concentration of 2.5 ug/mL. After incubating for 20 minutes on ice, the cells were washed and resuspended in FACS buffer, then sorted and analyzed on a flow cytometer (FACSCanto II, BD Biosciences, San Jose, Calif.) to determine relative binding by the candidate antibodies to the tested cell lines. Histograms of cells stained with anti-ASIC1 antibodies were compared with those of cells stained with secondary antibody alone. Percentage of ASIC1 signal over secondary antibody alone was calculated using FlowJo software (Tree Star, Ashland, Oreg.).

human ASIC1 [2] = molecular target: T2, human ASIC1 (human, UniProt P78348 1-528); test: cell-based or functional assay
T2 sequence: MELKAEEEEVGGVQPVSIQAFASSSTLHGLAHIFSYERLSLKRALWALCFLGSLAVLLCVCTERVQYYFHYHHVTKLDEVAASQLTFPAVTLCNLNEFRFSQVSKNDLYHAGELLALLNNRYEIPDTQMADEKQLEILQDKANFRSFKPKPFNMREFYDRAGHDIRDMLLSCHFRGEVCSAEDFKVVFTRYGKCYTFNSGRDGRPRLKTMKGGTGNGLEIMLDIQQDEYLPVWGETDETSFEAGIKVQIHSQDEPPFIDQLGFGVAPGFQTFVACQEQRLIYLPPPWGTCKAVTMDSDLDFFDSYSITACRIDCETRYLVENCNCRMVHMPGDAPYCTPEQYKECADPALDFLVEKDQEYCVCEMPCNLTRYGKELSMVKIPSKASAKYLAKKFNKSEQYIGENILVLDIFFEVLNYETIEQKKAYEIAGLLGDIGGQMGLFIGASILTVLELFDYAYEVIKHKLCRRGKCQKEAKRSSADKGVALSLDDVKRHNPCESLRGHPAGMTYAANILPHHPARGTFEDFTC

human ASIC3 = molecular target: T3, human ASIC3 (human, UniProt Q9UHC3 1-531); test: FACS, 3T3/hASIC3 cells, 10 nM antibody
T3 construct: whole, on cells; Expressed on 3T3 cells (3T3/hASIC3) or HEK293 cells (HEK/hASIC3-QCells); also called hASIC3
T3 sequence (looked up): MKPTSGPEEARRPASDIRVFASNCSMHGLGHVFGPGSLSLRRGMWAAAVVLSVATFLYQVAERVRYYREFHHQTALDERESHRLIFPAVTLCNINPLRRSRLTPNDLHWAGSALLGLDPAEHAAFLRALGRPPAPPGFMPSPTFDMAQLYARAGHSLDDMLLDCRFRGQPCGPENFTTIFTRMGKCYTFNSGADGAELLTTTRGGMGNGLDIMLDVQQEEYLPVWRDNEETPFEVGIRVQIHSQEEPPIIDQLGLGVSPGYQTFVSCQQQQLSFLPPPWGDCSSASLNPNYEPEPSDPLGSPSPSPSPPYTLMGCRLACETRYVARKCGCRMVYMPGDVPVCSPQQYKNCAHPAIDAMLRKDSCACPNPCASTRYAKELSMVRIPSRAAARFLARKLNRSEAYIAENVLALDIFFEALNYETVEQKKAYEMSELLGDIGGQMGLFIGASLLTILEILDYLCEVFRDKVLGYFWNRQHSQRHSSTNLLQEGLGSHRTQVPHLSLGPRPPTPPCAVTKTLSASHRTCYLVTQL
Text: as §1, §2

human ASIC1 [3] = molecular target: T2, human ASIC1; test: FACS titration, 3T3/hASIC1 cells
Method: To perform the FACS binding experiments, adherent cells were collected using 1 mM EDTA in PBS, then washed, and re-suspended in cold PBS containing 5% FBS. For each binding experiment, each anti-ASIC1 antibody ([…] or ND7 cells) was added to 250,000 cells in 500 μL of PBS with 5% FBS. After incubation for 20 minutes at room temperature, a secondary antibody which recognizes human Fc (Cat. No. 109-136-098, Jackson ImmunoResearch Laboratories, Inc., West Grove, Pa.) or mouse Fc (Cat. No. 550826, BD Biosciences, San Jose, Calif.) and is conjugated to allophycocyanin, was then added to the cell mixture at a final concentration of 13.3 nM. After incubating for 20 minutes on ice, the cells were washed and resuspended in PBS containing 5% FBS, then sorted and analyzed on a flow cytometer (FACSCalibur, BD Biosciences, San Jose, Calif.) to determine relative binding by the candidate antibodies to the tested cell lines. Histograms of cells stained with anti-ASIC1 antibodies were compared with those of cells stained with secondary antibody alone. Percentage of ASIC1 signal over secondary antibody alone was calculated using FlowJo software (Tree Star, Ashland, Oreg.).

mouse ASIC1a = molecular target: T4, mouse ASIC1a (mouse, UniProt Q6NXK8 1-526); test: FACS, 3T3/mASIC1a cells
T4 construct: whole, on cells; Expressed on stably transfected 3T3 cells (3T3/mASIC1a); also called mASIC1a
T4 sequence (looked up): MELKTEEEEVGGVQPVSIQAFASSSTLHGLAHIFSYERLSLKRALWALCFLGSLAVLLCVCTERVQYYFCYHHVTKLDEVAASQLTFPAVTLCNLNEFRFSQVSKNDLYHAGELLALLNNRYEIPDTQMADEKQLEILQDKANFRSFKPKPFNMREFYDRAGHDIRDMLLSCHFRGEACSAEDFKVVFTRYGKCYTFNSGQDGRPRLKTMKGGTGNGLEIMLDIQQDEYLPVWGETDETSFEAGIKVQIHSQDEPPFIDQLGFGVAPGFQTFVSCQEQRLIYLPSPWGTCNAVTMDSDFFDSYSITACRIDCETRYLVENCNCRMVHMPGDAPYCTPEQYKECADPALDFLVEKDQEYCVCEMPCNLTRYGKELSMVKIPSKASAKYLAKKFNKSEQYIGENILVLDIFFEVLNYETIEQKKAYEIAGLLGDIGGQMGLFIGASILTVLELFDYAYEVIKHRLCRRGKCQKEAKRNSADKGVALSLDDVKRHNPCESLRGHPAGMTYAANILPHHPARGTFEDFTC
Text: To further characterize anti-ASIC1 antibodies, their ability to bind either (a) a mouse fibroblast 3T3 cell line stably transfected to overexpress full length human ASIC1 (3T3/hASIC1; amino acids 1-528 of NCBI accession number NP_{—}001086.2 [SEQ ID NO:401]), (b) a 3T3 cell line stably transfected to over express full length mouse ASIC1a (3T3/mASIC1a; amino acids 1-526 of NCBI accession number NP_{—}033727), or (c) a ND7 cell line (ECACC, #92090903) that is a fusion cell line of mouse neuroblastoma and rat dorsal root ganglia that endogenously expresses rat ASIC1, was determined using flow cytometry (FACS). ND7 cells were differentiated by replacing the culture media with low-serum media (0.5% FBS) containing 1 mM dibutyryl-cAMP (Cat. No. sc-201567A, Santa Cruz Biotechnology, Inc., Santa Cruz, Calif.). FACS binding was tested for some antibodies on both undifferentiated ND7 cells and differentiated ND7 cells.
To perform the FACS binding experiments, adherent cells were collected using 1 mM EDTA in PBS, then washed, and re-suspended in cold PBS containing 5% FBS. For each binding experiment, each anti-ASIC1 antibody (at final concentrations of 10 nM of purified antibodies or 3.3 nM for antibody supernatants for binding to 3T3/hASIC1 cells and 5 nM for binding to 3T3/mASIC1a or ND7 cells) was added to 250,000 cells in 500 μL of PBS with 5% FBS. After incubation for 20 minutes at room temperature, a secondary antibody which recognizes human Fc (Cat. No. 109-136-098, Jackson ImmunoResearch Laboratories, Inc., West Grove, Pa.) or mouse Fc (Cat. No. 550826, BD Biosciences, San Jose, Calif.) and is conjugated to allophycocyanin, was then added to the cell mixture at a final concentration of 13.3 nM. After incubating for 20 minutes on ice, the cells were washed and resuspended in PBS containing 5% FBS, then sorted and analyzed on a flow cytometer (FACSCalibur, BD Biosciences, San Jose, Calif.) to determine relative binding by the candidate antibodies to the tested cell lines. Histograms of cells stained with anti-ASIC1 antibodies were compared with those of cells stained with secondary antibody alone. Percentage of ASIC1 signal over secondary antibody alone was calculated using FlowJo software (Tree Star, Ashland, Oreg.).

human ASIC1 [4] = molecular target: T2, human ASIC1; test: cell-based or functional assay; remark: listed apart in the source

B1: H4H6363P (antibody, V domains shown)
VH: EVQLLESGGGLVQPGGSLRLSCAASGFIFTNYAMTWLRQAPGKGLEWVSALSGSGGTTYYADSVKGRFTTSRDNSKNTLYLQMNSLRAEDTAVYYCAKDPHYYGSGNDYFYYYGLDVWGRGTTVTVSS
VL: not shown
binding result [1]: binds | Current inhibition (%) at 100 nM antibody, Q-Patch, pH 6.0 (human ASIC1 [2]): 0% | binding result (human ASIC3): binds | EC50 (human ASIC1 [3]): 0.836 nM

B2: H4H6366P (antibody, human IgG4, V domains shown)
VH: EVQLVESGGDLIQPGGSLRLSCIASGFTFRGYAMSWVRQAPGEGLDWVSGISSGGGNTYYADSVKGRFTISRDNSKNTLYLQMNSLRVEDTAVYYCAKDRGGVRDFYYGLDVWGQGTTVTVSS
VL: DIQMTQSPSTLSASVGDRVTITCRASQSIYSWLAWYQQKPGKAPKLLIYKASSLESGVPSRFSGSGSGTDFTLTISSLQPDDFTTYYCQQYLSYSRTFGQGTKVEIK
binding result (mouse ASIC1a): binds | Current inhibition (%) at 100 nM antibody, Q-Patch, pH 6.0 (human ASIC1 [2]): 72% | apparent IC50, human ASIC1 current, Q-Patch (human ASIC1 [4]): ≤ 10 nM | EC50 (human ASIC1 [3]): 1 nM
